The values below come from US20030152975A1.

The target of this assay is INF1 expressed in planta (FMV 35S promoter, PR1a signal peptide - INF1) (Phytophthora infestans (US-8 genotype)). Put plainly: cell-based or functional assay.

“Nhr1 expressed from the cosmid Nhr1 clone (tobacco genomic DNA in binary cosmid 04541)” gave a necrosis percentage (average of 31 leaves), 78 hai of 11%; a necrosis percentage (average of 31 leaves), 94 hai of 19.8%; a necrosis percentage (average of 31 leaves), 102 hai of 26%; a necrosis percentage (average of 31 leaves), 120 hai of 28.9%. This substance also had a necrosis percentage (average of 31 leaves), 140 hai of 31%.
